Measured values as given in US20210388110A1 (published 2021).

Biological target: T1, soluble human GPC3 (human, UniProt P51654 25-563, limits assumed)
T1 construct: also called glypican 3
Test: SPR (Biacore), single-arm antibody, soluble human GPC3

T1 sequence (P51654 other isoform, or with tags, fused parts or gaps limits assumed, form in doubt): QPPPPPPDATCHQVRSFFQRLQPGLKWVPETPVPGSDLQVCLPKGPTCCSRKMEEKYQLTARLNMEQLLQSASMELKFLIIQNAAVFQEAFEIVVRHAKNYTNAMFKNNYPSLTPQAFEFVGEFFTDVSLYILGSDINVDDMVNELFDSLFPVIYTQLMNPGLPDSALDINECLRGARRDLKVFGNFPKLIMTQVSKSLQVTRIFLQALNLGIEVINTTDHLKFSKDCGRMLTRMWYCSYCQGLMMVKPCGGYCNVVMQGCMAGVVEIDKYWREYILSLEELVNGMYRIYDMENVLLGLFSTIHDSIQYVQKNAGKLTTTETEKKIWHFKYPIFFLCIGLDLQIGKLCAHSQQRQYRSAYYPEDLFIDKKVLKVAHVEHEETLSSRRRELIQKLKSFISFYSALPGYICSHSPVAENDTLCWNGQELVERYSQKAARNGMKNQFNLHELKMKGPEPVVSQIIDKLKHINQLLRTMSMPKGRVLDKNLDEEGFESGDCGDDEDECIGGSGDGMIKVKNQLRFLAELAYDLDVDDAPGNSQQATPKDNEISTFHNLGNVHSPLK

Binder	Kd [nM]
H0610-G1dh/none-Hi-Kn010G3/L0091-k0 (antibody, human IgG1, kappa, single-arm antibody) heavy: not shown EPKSSDKTHTCPPCPAPELLGGPSVFLFPPKPKDTLMISRTPEVTCVVVDVSHEDPEVKFNWYVDGVEVHNAKTKPREEQYNSTYRVVSVLTVLHQDWLNGKEYKCKVSNKALPAPIEKTISKAKGQPREPQVCTLPPSRDELTKNQVSLWCLVKGFYPSDIAVEWESNGQPENNYKTTPPVLDSDGSFFLYSKLTVDKSRWQQGNVFSCSVMHEALHNRYTQKSLSLSP light: DIVMTQSPLSLPVTPGEPASISCRSSQSLVHSNRNTYLNWYQQKPGQAPRLLIYKVSNRFSGVPDRFSGSGSGTDFTLKISRVEAEDVGVYYCGQGTQVPYTFGQGTKLEIKRTVAAPSVFIFPPSDEQLKSGTASVVCLLNNFYPREAKVQWKVDNALQSGNSQESVTEQDSKDSTYSLSSTLTLSKADYEKHKVYACEVTHQGLSSPVTKSFNRGEC	5.43
H0610-G1dh/none-Hi-Kn010G3/L0117-k0 (antibody, human IgG1, kappa, single-arm antibody) heavy: not shown EPKSSDKTHTCPPCPAPELLGGPSVFLFPPKPKDTLMISRTPEVTCVVVDVSHEDPEVKFNWYVDGVEVHNAKTKPREEQYNSTYRVVSVLTVLHQDWLNGKEYKCKVSNKALPAPIEKTISKAKGQPREPQVCTLPPSRDELTKNQVSLWCLVKGFYPSDIAVEWESNGQPENNYKTTPPVLDSDGSFFLYSKLTVDKSRWQQGNVFSCSVMHEALHNRYTQKSLSLSP light: DIVMTQSPLSLPVTPGEPASISCRSSQSLVHSNRNTYLHWYQQKPGQAPRLLIYKVSNRASGVPDRFSGSGSGTDFTLKISRVEAEDVGVYYCGQGTQVPYTFGQGTKLEIKRTVAAPSVFIFPPSDEQLKSGTASVVCLLNNFYPREAKVQWKVDNALQSGNSQESVTEQDSKDSTYSLSSTLTLSKADYEKHKVYACEVTHQGLSSPVTKSFNRGEC	4.92
H0610-G1dh/none-Hi-Kn010G3/L0113-k0 (antibody, human IgG1, kappa, single-arm antibody) heavy: not shown EPKSSDKTHTCPPCPAPELLGGPSVFLFPPKPKDTLMISRTPEVTCVVVDVSHEDPEVKFNWYVDGVEVHNAKTKPREEQYNSTYRVVSVLTVLHQDWLNGKEYKCKVSNKALPAPIEKTISKAKGQPREPQVCTLPPSRDELTKNQVSLWCLVKGFYPSDIAVEWESNGQPENNYKTTPPVLDSDGSFFLYSKLTVDKSRWQQGNVFSCSVMHEALHNRYTQKSLSLSP light: DIVMTQSPLSLPVTPGEPASISCRSSQSLVHSNRNTYLHWYQQKPGQAPRLLIYKVSTRFSGVPDRFSGSGSGTDFTLKISRVEAEDVGVYYCGQGTQVPYTFGQGTKLEIKRTVAAPSVFIFPPSDEQLKSGTASVVCLLNNFYPREAKVQWKVDNALQSGNSQESVTEQDSKDSTYSLSSTLTLSKADYEKHKVYACEVTHQGLSSPVTKSFNRGEC	4.82
H0610-G1dh/none-Hi-Kn010G3/L0109-k0 (antibody, human IgG1, kappa, single-arm antibody) heavy: not shown EPKSSDKTHTCPPCPAPELLGGPSVFLFPPKPKDTLMISRTPEVTCVVVDVSHEDPEVKFNWYVDGVEVHNAKTKPREEQYNSTYRVVSVLTVLHQDWLNGKEYKCKVSNKALPAPIEKTISKAKGQPREPQVCTLPPSRDELTKNQVSLWCLVKGFYPSDIAVEWESNGQPENNYKTTPPVLDSDGSFFLYSKLTVDKSRWQQGNVFSCSVMHEALHNRYTQKSLSLSP light: DIVMTQSPLSLPVTPGEPASISCRSSQSLVHSNRNTYLHWYQQKPGQAPRLLIYKVSMRFSGVPDRFSGSGSGTDFTLKISRVEAEDVGVYYCGQGTQVPYTFGQGTKLEIKRTVAAPSVFIFPPSDEQLKSGTASVVCLLNNFYPREAKVQWKVDNALQSGNSQESVTEQDSKDSTYSLSSTLTLSKADYEKHKVYACEVTHQGLSSPVTKSFNRGEC	5.7
H0610-G1dh/none-Hi-Kn010G3/L0123-k0 (antibody, human IgG1, kappa, single-arm antibody) heavy: not shown EPKSSDKTHTCPPCPAPELLGGPSVFLFPPKPKDTLMISRTPEVTCVVVDVSHEDPEVKFNWYVDGVEVHNAKTKPREEQYNSTYRVVSVLTVLHQDWLNGKEYKCKVSNKALPAPIEKTISKAKGQPREPQVCTLPPSRDELTKNQVSLWCLVKGFYPSDIAVEWESNGQPENNYKTTPPVLDSDGSFFLYSKLTVDKSRWQQGNVFSCSVMHEALHNRYTQKSLSLSP light: DIVMTQSPLSLPVTPGEPASISCRSSQSLVHSNRNTYLHWYQQKPGQAPRLLIYKVSNRKSGVPDRFSGSGSGTDFTLKISRVEAEDVGVYYCGQGTQVPYTFGQGTKLEIKRTVAAPSVFIFPPSDEQLKSGTASVVCLLNNFYPREAKVQWKVDNALQSGNSQESVTEQDSKDSTYSLSSTLTLSKADYEKHKVYACEVTHQGLSSPVTKSFNRGEC	5.08
H0610-G1dh/none-Hi-Kn010G3/L0104-k0 (antibody, human IgG1, kappa, single-arm antibody) heavy: not shown EPKSSDKTHTCPPCPAPELLGGPSVFLFPPKPKDTLMISRTPEVTCVVVDVSHEDPEVKFNWYVDGVEVHNAKTKPREEQYNSTYRVVSVLTVLHQDWLNGKEYKCKVSNKALPAPIEKTISKAKGQPREPQVCTLPPSRDELTKNQVSLWCLVKGFYPSDIAVEWESNGQPENNYKTTPPVLDSDGSFFLYSKLTVDKSRWQQGNVFSCSVMHEALHNRYTQKSLSLSP light: DIVMTQSPLSLPVTPGEPASISCRSSQSLVHSNRNTYLHWYQQKPGQAPRLLIYKVSFRFSGVPDRFSGSGSGTDFTLKISRVEAEDVGVYYCGQGTQVPYTFGQGTKLEIKRTVAAPSVFIFPPSDEQLKSGTASVVCLLNNFYPREAKVQWKVDNALQSGNSQESVTEQDSKDSTYSLSSTLTLSKADYEKHKVYACEVTHQGLSSPVTKSFNRGEC	5.9
H0610-G1dh/none-Hi-Kn010G3/L0129-k0 (antibody, human IgG1, kappa, single-arm antibody) heavy: not shown EPKSSDKTHTCPPCPAPELLGGPSVFLFPPKPKDTLMISRTPEVTCVVVDVSHEDPEVKFNWYVDGVEVHNAKTKPREEQYNSTYRVVSVLTVLHQDWLNGKEYKCKVSNKALPAPIEKTISKAKGQPREPQVCTLPPSRDELTKNQVSLWCLVKGFYPSDIAVEWESNGQPENNYKTTPPVLDSDGSFFLYSKLTVDKSRWQQGNVFSCSVMHEALHNRYTQKSLSLSP light: DIVMTQSPLSLPVTPGEPASISCRSSQSLVHSNRNTYLHWYQQKPGQAPRLLIYKVSNRRSGVPDRFSGSGSGTDFTLKISRVEAEDVGVYYCGQGTQVPYTFGQGTKLEIKRTVAAPSVFIFPPSDEQLKSGTASVVCLLNNFYPREAKVQWKVDNALQSGNSQESVTEQDSKDSTYSLSSTLTLSKADYEKHKVYACEVTHQGLSSPVTKSFNRGEC	5.28
H0610-G1dh/none-Hi-Kn010G3/L0126-k0 (antibody, human IgG1, kappa, single-arm antibody) heavy: not shown EPKSSDKTHTCPPCPAPELLGGPSVFLFPPKPKDTLMISRTPEVTCVVVDVSHEDPEVKFNWYVDGVEVHNAKTKPREEQYNSTYRVVSVLTVLHQDWLNGKEYKCKVSNKALPAPIEKTISKAKGQPREPQVCTLPPSRDELTKNQVSLWCLVKGFYPSDIAVEWESNGQPENNYKTTPPVLDSDGSFFLYSKLTVDKSRWQQGNVFSCSVMHEALHNRYTQKSLSLSP light: DIVMTQSPLSLPVTPGEPASISCRSSQSLVHSNRNTYLHWYQQKPGQAPRLLIYKVSNRNSGVPDRFSGSGSGTDFTLKISRVEAEDVGVYYCGQGTQVPYTFGQGTKLEIKRTVAAPSVFIFPPSDEQLKSGTASVVCLLNNFYPREAKVQWKVDNALQSGNSQESVTEQDSKDSTYSLSSTLTLSKADYEKHKVYACEVTHQGLSSPVTKSFNRGEC	5.62

Next, values leading:

Kd [nM]	Binder
5.04	H0610-G1dh/none-Hi-Kn010G3/L0136-k0 (antibody, human IgG1, kappa, single-arm antibody) heavy: not shown EPKSSDKTHTCPPCPAPELLGGPSVFLFPPKPKDTLMISRTPEVTCVVVDVSHEDPEVKFNWYVDGVEVHNAKTKPREEQYNSTYRVVSVLTVLHQDWLNGKEYKCKVSNKALPAPIEKTISKAKGQPREPQVCTLPPSRDELTKNQVSLWCLVKGFYPSDIAVEWESNGQPENNYKTTPPVLDSDGSFFLYSKLTVDKSRWQQGNVFSCSVMHEALHNRYTQKSLSLSP light: DIVMTQSPLSLPVTPGEPASISCRSSQSLVHSNRNTYLHWYQQKPGQAPRLLIYKVSNRFFGVPDRFSGSGSGTDFTLKISRVEAEDVGVYYCGQGTQVPYTFGQGTKLEIKRTVAAPSVFIFPPSDEQLKSGTASVVCLLNNFYPREAKVQWKVDNALQSGNSQESVTEQDSKDSTYSLSSTLTLSKADYEKHKVYACEVTHQGLSSPVTKSFNRGEC
4.84	H0610-G1dh/none-Hi-Kn010G3/L0144-k0 (antibody, human IgG1, kappa, single-arm antibody) heavy: not shown EPKSSDKTHTCPPCPAPELLGGPSVFLFPPKPKDTLMISRTPEVTCVVVDVSHEDPEVKFNWYVDGVEVHNAKTKPREEQYNSTYRVVSVLTVLHQDWLNGKEYKCKVSNKALPAPIEKTISKAKGQPREPQVCTLPPSRDELTKNQVSLWCLVKGFYPSDIAVEWESNGQPENNYKTTPPVLDSDGSFFLYSKLTVDKSRWQQGNVFSCSVMHEALHNRYTQKSLSLSP light: DIVMTQSPLSLPVTPGEPASISCRSSQSLVHSNRNTYLHWYQQKPGQAPRLLIYKVSNRFQGVPDRFSGSGSGTDFTLKISRVEAEDVGVYYCGQGTQVPYTFGQGTKLEIKRTVAAPSVFIFPPSDEQLKSGTASVVCLLNNFYPREAKVQWKVDNALQSGNSQESVTEQDSKDSTYSLSSTLTLSKADYEKHKVYACEVTHQGLSSPVTKSFNRGEC
4.78	H0610-G1dh/none-Hi-Kn010G3/L0139-k0 (antibody, human IgG1, kappa, single-arm antibody) heavy: not shown EPKSSDKTHTCPPCPAPELLGGPSVFLFPPKPKDTLMISRTPEVTCVVVDVSHEDPEVKFNWYVDGVEVHNAKTKPREEQYNSTYRVVSVLTVLHQDWLNGKEYKCKVSNKALPAPIEKTISKAKGQPREPQVCTLPPSRDELTKNQVSLWCLVKGFYPSDIAVEWESNGQPENNYKTTPPVLDSDGSFFLYSKLTVDKSRWQQGNVFSCSVMHEALHNRYTQKSLSLSP light: DIVMTQSPLSLPVTPGEPASISCRSSQSLVHSNRNTYLHWYQQKPGQAPRLLIYKVSNRFIGVPDRFSGSGSGTDFTLKISRVEAEDVGVYYCGQGTQVPYTFGQGTKLEIKRTVAAPSVFIFPPSDEQLKSGTASVVCLLNNFYPREAKVQWKVDNALQSGNSQESVTEQDSKDSTYSLSSTLTLSKADYEKHKVYACEVTHQGLSSPVTKSFNRGEC
5.24	H0610-G1dh/none-Hi-Kn010G3/L0138-k0 (antibody, human IgG1, kappa, single-arm antibody) heavy: not shown EPKSSDKTHTCPPCPAPELLGGPSVFLFPPKPKDTLMISRTPEVTCVVVDVSHEDPEVKFNWYVDGVEVHNAKTKPREEQYNSTYRVVSVLTVLHQDWLNGKEYKCKVSNKALPAPIEKTISKAKGQPREPQVCTLPPSRDELTKNQVSLWCLVKGFYPSDIAVEWESNGQPENNYKTTPPVLDSDGSFFLYSKLTVDKSRWQQGNVFSCSVMHEALHNRYTQKSLSLSP light: DIVMTQSPLSLPVTPGEPASISCRSSQSLVHSNRNTYLHWYQQKPGQAPRLLIYKVSNRFHGVPDRFSGSGSGTDFTLKISRVEAEDVGVYYCGQGTQVPYTFGQGTKLEIKRTVAAPSVFIFPPSDEQLKSGTASVVCLLNNFYPREAKVQWKVDNALQSGNSQESVTEQDSKDSTYSLSSTLTLSKADYEKHKVYACEVTHQGLSSPVTKSFNRGEC
5.65	H0610-G1dh/none-Hi-Kn010G3/L0132-k0 (antibody, human IgG1, kappa, single-arm antibody) heavy: not shown EPKSSDKTHTCPPCPAPELLGGPSVFLFPPKPKDTLMISRTPEVTCVVVDVSHEDPEVKFNWYVDGVEVHNAKTKPREEQYNSTYRVVSVLTVLHQDWLNGKEYKCKVSNKALPAPIEKTISKAKGQPREPQVCTLPPSRDELTKNQVSLWCLVKGFYPSDIAVEWESNGQPENNYKTTPPVLDSDGSFFLYSKLTVDKSRWQQGNVFSCSVMHEALHNRYTQKSLSLSP light: DIVMTQSPLSLPVTPGEPASISCRSSQSLVHSNRNTYLHWYQQKPGQAPRLLIYKVSNRVSGVPDRFSGSGSGTDFTLKISRVEAEDVGVYYCGQGTQVPYTFGQGTKLEIKRTVAAPSVFIFPPSDEQLKSGTASVVCLLNNFYPREAKVQWKVDNALQSGNSQESVTEQDSKDSTYSLSSTLTLSKADYEKHKVYACEVTHQGLSSPVTKSFNRGEC
